Results as given in patent publication US7964369.

Molecular target: bacterial recombinant GST-GRAIL fusion protein, Q9D304
Sequence (Q9D304 whole entry, looked up, the tested form may be a part): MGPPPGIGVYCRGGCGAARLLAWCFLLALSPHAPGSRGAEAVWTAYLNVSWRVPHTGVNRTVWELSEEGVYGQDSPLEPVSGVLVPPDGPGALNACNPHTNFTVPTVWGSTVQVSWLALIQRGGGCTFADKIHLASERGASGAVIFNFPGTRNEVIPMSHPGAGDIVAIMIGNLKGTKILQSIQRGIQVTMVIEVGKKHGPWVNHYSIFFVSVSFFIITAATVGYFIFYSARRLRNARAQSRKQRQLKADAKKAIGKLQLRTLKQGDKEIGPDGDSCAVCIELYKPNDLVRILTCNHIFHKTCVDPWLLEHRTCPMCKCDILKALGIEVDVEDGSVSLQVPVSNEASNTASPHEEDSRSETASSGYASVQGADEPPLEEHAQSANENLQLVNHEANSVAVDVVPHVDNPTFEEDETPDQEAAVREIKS

B1: USP8 expressed in E. coli (pET28) (protein)
chain: MPAVASVPKELYLSSSLKDLNKKTEVKPEKTSTKNYIHSAQKIFKTAEECRLDRDEERAYVLYMKYVAVYNLIKKRPDFKQQQDYYLSILGPANIKKAIEEAERLSESLKLRYEEAEVRKQLEEKDRREEEQLQQQKRQEMGREDSGAAAKRSVENLLDSKTKTQRINGEKSEGAAAAERGAITAKELYTMMMDKNTSLIIMDARKIQDYQHSCILDSLSVPEEAISPGVTASWIEANLSDDSKDTWKKRGSVDYVVLLDWFSSAKDLLLGTTLRSLKDALFKWESKTVLRHEPLVLEGGYENWLLCYPQFTTNAKVTPPPRSRAEEVSVSLDFTYPSLEEPVPSKLPTQMPPPPIETNEKALLVTDQDEKLRLSTQPALAGPGAAPRAEASPIIQPAPATKSVPQVDRTKKPSVKLPEDHRIKSENTDQSGRVLSDRSTKPVFPSPTTMLTDEEKARIHQETALLMEKNKQEKELWDKQQKEQKEKLRREEQERKAGKTQDADERDSTENQHKAKDGQEKKDSKQTKTEDRELSADGAQEATGTQRQSKSEHEASDAKVPVEGKRCPTSEAQKRPADVSPASVSGELNAGKAQREPLTRARSEEMGRIVPGLPLGWAKFLDPITGTFRYYHSPTNTVHMYPPEMAPSSAPPSTPPTHKVKPQVPAERDREPSKLKRSYSSPDITQALQEEEKRRPAVTPMVNRENKPPCYPKAEISRLSASQIRNLNPVFGGSGPALTGLRNLGNTCYMNSILQCLCNAPHLADYFNRNCYQDDINRSNLLGHKGEVAEEFGIIMKALWTGQYRYISPKDFKVTIGKINDQFAGSSQQDSQELLLFLMDGLHEDLNKADNRKRHKEENNEHLDDLQAAEHAWQKHKQLNESIIVALFQGQFKSTVQCLTCRRRSRTFEAFMYLSLPLASTSKCTLQDCLRLFSKEEKLTDNNRFYCSHCRARRDSLKKIEIWKLPPVLLVHLKRFSYDGRWKQKLQTSVDFPLENLDLSQYVIGPKNSLKKYNLFSVSNHYGGLDGGHYTAYCKNAARQRWFKFDDHEVSDISVSSVRSSAAYILFYTSLGPRITDVAT
de-ubiquitination of auto-ubiquitinated GST-GRAIL in vitro: USP8 is capable of de-ubiquitinating GRAIL in vitro
